# Measured values: article PMC11118347 (bioRxiv, 2024)
# B1: Human lens fiber membrane intrinsic protein MP20 (construct selected for crystallization) (natural protein)
# chain: MYSFMGGGLFCAWVGTILLVVAMATDHWMQYRLSGSFAHQGLWRYCLGNKCYLQTDSIAYWNATRAFMILSALCAISGIIMGIMAFAHQPTFSRISRPFSAGIMFFSSTLFVVLALAIYTGVTVSFLGRRFGDWRFSWSYILGWVAVLMTFFAGIFYMCAYRVHECRRLSTPR
# modifications: Janelia Fluor 549 NHS-ester labelling on column; membranes incubated with iodoacetamide
# Molecular target: the molecule itself
# Assay: crystal structure
protein,measurement,value
B1,stoichiometry N,4
